Data published in publication PMC5435866.
Substitutions are numbered along the chain they refer to.

Key:
Assay in all cases: EMSA
Drosophila SLBP 4S-4E = biological target: T1, Drosophila SLBP 4S-4E (UniProt Q9VAN6 1-276, S269E;S271E;S273E;S275E)
T1 sequence: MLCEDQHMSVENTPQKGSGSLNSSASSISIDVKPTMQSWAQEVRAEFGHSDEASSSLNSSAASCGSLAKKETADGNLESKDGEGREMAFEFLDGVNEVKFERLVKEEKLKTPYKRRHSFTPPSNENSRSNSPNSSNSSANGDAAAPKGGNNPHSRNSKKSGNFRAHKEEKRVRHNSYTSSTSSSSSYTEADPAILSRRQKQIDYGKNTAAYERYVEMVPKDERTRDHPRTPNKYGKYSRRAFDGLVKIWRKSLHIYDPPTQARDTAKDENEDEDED

Drosophila SLBP 4S-4A = biological target: T2, Drosophila SLBP 4S-4A (UniProt Q9VAN6 1-276, S269A;S271A;S273A;S275A)
T2 sequence: T1 sequence with E269A, E271A, E273A, E275A

Drosophila SLBP ER = biological target: T3, Drosophila SLBP ER (UniProt Q9VAN6 1-276, A210G;E212Q;R213C)
T3 sequence: T1 sequence with A210G, E212Q, R213C, E269S, E271S, E273S, E275S

Measured: binding result

GUGCCAAAAAGGCUCUUUUCAGAGCCACCCA (structured_RNA) [SL RNA]
binds: Drosophila SLBP 4S-4E | Drosophila SLBP 4S-4A | Drosophila SLBP ER
